Measured values as given in publication PMC8293630.
Blank lines part the entries; values can stand above or below the substance they belong to.

Columns and labels:
[1] = molecular target: 1G4 TCRαβ with βA291 (αWT, β Y291A), β-HA and α-FLAG; conditions: scale: nM
[2] = molecular target: 1G4 TCRαβ wild type (HLA-A2-restricted TCR specific for NY-ESO-1 157-165), β-HA and α-FLAG; conditions: scale: nM
[3] = molecular target: 1G4 TCRαβ with βA291 (αWT, β Y291A), β-HA and α-FLAG; experiment: co-IP; DDM stability assay (DSA): J76 cells lysed in 0.5% DDM, 150 mM NaCl, 20 mM Tris pH 8.0, 30 min on ice; post-nuclear lysate on anti-HA agarose beads (β-HA) 1 h at 4°C; quantitative immunoblot of β (HA), ε, γ, δ, ζ; ratios normalised to WT; also after A770041 treatment of the cells
[4] = molecular target: wtc51 TCRαβ (1G4 variant with four mutations in βCDR2), β-HA, in J76 cells; experiment: pull-down; ζ recovered with ligand-engaged TCR: (9V-A2)4-His bound to intact cells (37°C or 0°C, ± A770041), 0.5% DDM lysis, capture on HisPur cobalt resin; ζ/β2 compared with non-stimulated anti-HA pull-down (= 1)
[5] = molecular target: QM-α TCRαβ (1G4 variant with mutations in αCDR2, βCDR2 and βCDR3), β-HA, in J76 cells; experiment: as above
[6] = molecular target: 1G4 TCRαβ wild type (HLA-A2-restricted TCR specific for NY-ESO-1 157-165), β-HA and α-FLAG; experiment: co-IP; DDM stability assay (DSA): J76 cells lysed in 0.5% DDM, 150 mM NaCl, 20 mM Tris pH 8.0, 30 min on ice; post-nuclear lysate on anti-HA agarose beads (β-HA) 1 h at 4°C; quantitative immunoblot of β (HA), ε, γ, δ, ζ; ratios normalised to WT; also after A770041 treatment of the cells
[7] = molecular target: wtc51 TCRαβ (1G4 variant with four mutations in βCDR2), β-HA, in J76 cells

pErk MFI (flow cytometry) of CD8- J76 cells against (6V-A2)4 nM, EC50 of the non-linear regression fit [1]: 19
pErk MFI (flow cytometry) of CD8- J76 cells against (6V-A2)4 nM, EC50 of the non-linear regression fit [2]: 19.5
Substance: 6V-HLA-A2 tetramer on phycoerythrin-conjugated streptavidin (from UniProt P61769 21-119) (peptide-MHC)

reduction of recovery against 1G4-WT [3]: 40%
Substance: CD3γ, endogenous in J76 Jurkat cells (from UniProt P09693 23-182) (natural protein)

reduction of recovery against 1G4-WT [3]: 10%
Substance: CD3δ, endogenous in J76 Jurkat cells (from UniProt P04234 22-171) (natural protein)

ε/βT ratio (1G4-WT = 1) (ratio to 1G4-WT) [3]: 0.5
Substance: CD3ε, endogenous in J76 Jurkat cells (from UniProt P07766 23-207) (natural protein)

ζ/β2 ratio of liganded against unliganded TCR (= 1) (ratio to unliganded wtc51) [4]: 0.5
reduction of the ζ/β2 ratio of liganded against unliganded TCR [5]: 40%
ζ/β2 ratio (1G4-WT = 1) (ratio to 1G4-WT) [3]: 0.2
Substance: CD3ζ (ζζ), endogenous in J76 Jurkat cells (from UniProt P20963-1 22-164) (natural protein)

ζ/β2 ratio (ζWT = 1) [6]: 0.05 ratio to ζWT
Substance: CD3ζ I38A expressed in J76-1G4WT-ζKO cells (from UniProt P20963-1 22-164) (natural protein)

ζ/β2 ratio (ζWT = 1) [6]: 0.25 ratio to ζWT
Substance: CD3ζ I41A expressed in J76-1G4WT-ζKO cells (from UniProt P20963-1 22-164) (natural protein)

pErk immunoblot of J76 wtc51 cells, dose response of sm-9V-A2 (Figure S7F) [7]: 3 nM
Substance: soluble monovalent 9V-HLA-A2 (biotinylated pMHC monomer) (from UniProt P61769 21-119) (peptide-MHC)
